Assay results from publication doi:10.1101/2025.02.23.639735 (bioRxiv, 2025).

B1: 3’hExo SAP domain (domain or fragment, human, UniProt Q8IV48 63-124, looked up)
chain: DPVYKEIAITNGCINRMSKEELRAKLSEFKLETRGVKDVLKKRLKNYYKKQKLMLKESNFAD
B2: 3’hExo (construct of the SPR experiment not stated) (enzyme)
chain: MEDPQSKEPAGEAVALALLESPRPEGGEEPPRPSPEETQQCKFDGQETKGSKFITSSASDFSDPVYKEIAITNGCINRMSKEELRAKLSEFKLETRGVKDVLKKRLKNYYKKQKLMLKESNFADSYYDYICIIDFEATCEEGNPPEFVHEIIEFPVVLLNTHTLEIEDTFQQYVRPEINTQLSDFCISLTGITQDQVDRADTFPQVLKKVIDWMKLKELGTKYKYSLLTDGSWDMSKFLNIQCQLSRLKYPPFAKKWINIRKSYGNFYKVPRSQTKLTIMLEKLGMDYDGRPHCGLDDSKNIARIAVRMLQDGCELRINEKMHAGQLMSVSSSLPIEGTPPPQMPHFRK
B3: UPF2-AL (domain or fragment, human, UniProt Q9HAU5 1015-1106, looked up)
chain: NDKDSKDSMTEGENLEEDEEEEEGGAETEEQSGNESEVNEPEEEEGSDNDDDEGEEEEEENTDYLTDSNKENETDEENTEVMIKGGGLKHVP
modifications: 15N-labelled (15N/13C for the assignments) in the NMR experiments
B4: UPF2^1024-1085 (domain or fragment, human, UniProt Q9HAU5 1024-1085, looked up)
chain: TEGENLEEDEEEEEGGAETEEQSGNESEVNEPEEEEGSDNDDDEGEEEEEENTDYLTDSNKE
modifications: also: 15N-labelled

Legend:
UPF2-AL = molecular target: B3; test: NMR titration
[1] = molecular target: UPF2 (construct of the SPR experiment not stated) (human); test: SPR
3’hExofl [2] = molecular target: T1, 3’hExofl (human, UniProt Q8IV48 1-349); test: SEC
T1 sequence (looked up): B2 chain

3’hExo nuclease domain = molecular target: T2, 3’hExo nuclease domain (human, UniProt Q8IV48 124-349); test: NMR titration
T2 sequence (looked up): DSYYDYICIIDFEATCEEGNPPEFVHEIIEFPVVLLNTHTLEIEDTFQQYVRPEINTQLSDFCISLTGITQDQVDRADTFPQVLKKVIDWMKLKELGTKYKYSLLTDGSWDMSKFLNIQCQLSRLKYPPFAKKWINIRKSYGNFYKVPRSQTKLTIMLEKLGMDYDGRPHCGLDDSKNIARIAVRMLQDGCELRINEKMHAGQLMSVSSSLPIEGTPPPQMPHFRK

3’hExofl [3] = molecular target: T1, 3’hExofl; test: NMR titration

Chain of UPF2 (construct of the SPR experiment not stated) (human) (Q9HAU5 whole entry): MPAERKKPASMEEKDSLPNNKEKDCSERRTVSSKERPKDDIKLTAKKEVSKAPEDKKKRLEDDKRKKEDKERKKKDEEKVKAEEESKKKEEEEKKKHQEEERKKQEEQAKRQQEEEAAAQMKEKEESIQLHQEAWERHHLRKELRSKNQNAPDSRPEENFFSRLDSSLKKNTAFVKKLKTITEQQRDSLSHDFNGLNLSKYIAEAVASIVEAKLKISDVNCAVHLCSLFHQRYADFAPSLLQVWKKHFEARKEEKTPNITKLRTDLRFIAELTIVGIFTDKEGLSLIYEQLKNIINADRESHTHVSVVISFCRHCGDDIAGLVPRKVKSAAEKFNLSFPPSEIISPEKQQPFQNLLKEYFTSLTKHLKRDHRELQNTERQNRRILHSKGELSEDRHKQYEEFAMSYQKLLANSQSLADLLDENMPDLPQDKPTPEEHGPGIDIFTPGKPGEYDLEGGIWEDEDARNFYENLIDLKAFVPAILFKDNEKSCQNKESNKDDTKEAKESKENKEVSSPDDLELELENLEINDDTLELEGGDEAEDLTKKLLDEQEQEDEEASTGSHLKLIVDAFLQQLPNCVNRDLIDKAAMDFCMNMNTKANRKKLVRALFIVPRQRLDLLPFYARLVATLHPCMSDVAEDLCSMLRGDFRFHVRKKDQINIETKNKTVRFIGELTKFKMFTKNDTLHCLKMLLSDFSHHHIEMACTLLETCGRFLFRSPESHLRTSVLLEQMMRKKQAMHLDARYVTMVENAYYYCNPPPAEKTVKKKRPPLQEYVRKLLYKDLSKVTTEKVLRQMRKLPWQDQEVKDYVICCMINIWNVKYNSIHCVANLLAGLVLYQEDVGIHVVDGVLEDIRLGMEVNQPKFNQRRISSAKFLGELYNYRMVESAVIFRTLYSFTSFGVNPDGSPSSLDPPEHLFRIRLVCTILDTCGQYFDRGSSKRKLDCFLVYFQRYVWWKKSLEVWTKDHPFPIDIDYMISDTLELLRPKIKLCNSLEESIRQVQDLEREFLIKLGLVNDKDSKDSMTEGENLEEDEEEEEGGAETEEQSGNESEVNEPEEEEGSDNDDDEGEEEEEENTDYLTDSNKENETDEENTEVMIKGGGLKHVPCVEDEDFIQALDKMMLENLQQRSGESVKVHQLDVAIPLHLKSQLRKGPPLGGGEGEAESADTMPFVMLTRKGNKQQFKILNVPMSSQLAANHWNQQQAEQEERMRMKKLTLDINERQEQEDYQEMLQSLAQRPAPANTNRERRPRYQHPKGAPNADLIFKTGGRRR

B1: binds (UPF2-AL).

B2 gave a Kd [1] of 170 µM.

B3: binds (3’hExofl [2]); binds (3’hExo nuclease domain).

In the case of B4, the Kd (3’hExofl [3]) is reported as about 200 µM.
